The values that follow are results of earlier work, collected in article PMC10213764 (Acta Pharmaceutica Sinica. B, 2023).

For this series the following is noted: continuous agitation, 37 °C.

Bounds are passed on as bounds.

“native insulin: Native insulin was purchased from Life Technologies”: the “time free from aggregation, formulated with CB[7]‒PEG conjugate” value is recorded as above 100 days.
